Laboratory results reported in patent US20220259303A1 (ZHEJIANG DOER BIOLOGICS, published 2022).

How the values were obtained:
[1] = biological target: T1, CLD18A2; assay: cell ELISA, E. coli expression supernatant on CHO-S-CLD18A2
T1 construct: also called claudin 18 splice variant A2; CHO-S-CLD18A2
Method: (§1) The clones selected according to the results of the 96-well plates of CHO-S, CHO-S-CLD18A1, and CHO-S-CLD18A2 cells are cultured. pcomb3XSS plasmids containing a single VHH sequence are extracted, and transformed into E. coli respectively to expression host Rosetta DE3. The respective expression clones are selected and cultured, then induced with 0.2 mM IPTG at 30° C. overnight to facilitate the periplasm-expressed proteins leakage into the culture medium supernatant. The culture medium supernatant of 16 clones are examined by ELISA again: adding 100 μl/well of 1:5000 diluted mouse anti his tag antibody (R&D Systems, Inc), incubating at room temperature for 1 h, washing, adding 100 μl/well of 1:10000 diluted HRP-Goat anti-mouse IgG antibody (Thermo Scientific), incubating for 1 h at room temperature, and adding TMB to develop color after washing. The negative control is a clone transfected with negative plasmid. The cell ELISA results are shown in Table 1, and the specific binding clones are further selected. These clones are sequenced respectively. Amino acid sequence alignment is performed. Clones with identical sequences are removed and finally 8 different clones are obtained.

[2] = biological target: T1, CLD18A2; assay: cell ELISA, purified VHH 2 µg/ml on CHO-S-CLD18A2
Method: (§2) CHO-S, CHO-S-CLD18A1, and CHO-S-CLD18A2 are plated in 96-well plates at 5×10⁵ cells per well, and blocked with 3% BSA at room temperature for 1 h. The purified Anti-CLD18A2 VHH with HIS-tag is diluted to 2 μg/ml, add 100 μl to the blocked cells, and incubated for 1 h at room temperature. After washing, 100 μl/well of 1:5000 diluted mouse anti-his tag antibody (R&D Systems, Inc) was added and incubated at room temperature for 1 h. After washing, 100 μl/well of 1:10000 diluted HRP-Goat anti-mouse IgG antibody (Thermo Scientific) was added and incubated for 1 h at room temperature. After washing, TMB was added to develop color. The OD value is measured at 450 nm.

[3] = biological target: T2, CLD18A1 (Homo sapiens (Human), UniProt P56856 1-261); assay: cell ELISA, E. coli expression supernatant on CHO-S-CLD18A1
T2 construct: also called claudin 18 splice variant A1; CHO-S-CLD18A1
T2 sequence (P56856 whole entry, canonical isoform): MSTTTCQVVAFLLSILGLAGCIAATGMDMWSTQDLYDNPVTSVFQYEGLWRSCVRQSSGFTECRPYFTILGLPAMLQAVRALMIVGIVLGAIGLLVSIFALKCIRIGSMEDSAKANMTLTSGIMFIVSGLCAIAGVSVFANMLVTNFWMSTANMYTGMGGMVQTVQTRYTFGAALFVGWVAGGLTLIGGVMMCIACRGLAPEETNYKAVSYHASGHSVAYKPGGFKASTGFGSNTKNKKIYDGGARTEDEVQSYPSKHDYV
Method: as §1

[4] = biological target: T2, CLD18A1; assay: cell ELISA, purified HIS-tagged VHH on CHO-S-CLD18A1
Method: as §2

[5] = biological target: T1, CLD18A2; assay: cell ELISA, his-tagged VHH titrated on CHO-S-CLD18A2
Method: (§3) CHO-S-CLD18A2 cells are plated in a 96-well plate at 5×10⁵ cells per well, and blocked with 3% BSA at room temperature for 1 h. The purified Anti-CLD18A2 VHH fused with histidine tag is diluted in gradients with 1% BSA, added to the blocked cells, and incubated for 1 h at room temperature. After washing, 100 μl/well of 1:5000 diluted mouse anti-his tag antibody (R&D Systems, Inc) was added and incubated at room temperature for 1 h. After washing, 100 μl/well of 1:10000 diluted HRP-Goat anti-mouse IgG antibody (Thermo Scientific) was added and incubated for 1 h at room temperature. After washing, TMB was added to develop color. The OD value is detected at 450 nm. The software GraphPad Prism v5.0 is used for data processing and mapping analysis, and the EC50 value of Anti-CLD18A2 VHH against CLD18A2 on cells is obtained to reflect the affinity of the VHH to CLD18A2.

[6] = biological target: T1, CLD18A2; assay: cell ELISA on CLD18A2-expressing cells, anti-human IgG Fc detection
Method: The Anti-C18.2-Fc fusion proteins are diluted in gradients with 1% BSA, and the HRP-Goat anti-Human IgG Fc (Novex) secondary antibody is diluted 1:20000. The cell ELISA method is the same as that described in Embodiment 3.2. The software GraphPad Prism v5.0 is used for data processing and mapping analysis. The binding curve and EC50 value of Anti-C18.2-Fc against CLD18A2 in cells are obtained to reflect the affinity of the antibody to CLD18A2.
The affinities of Anti-C18.2-hu19V1-Fc and Anti-C18.2-hu19V3-Fc are similar to that of Anti-C18.2-19-Fc, which are better than that of the positive control ch-175D10.

[7] = biological target: T1, CLD18A2; assay: cell ELISA on CHO-S-CLD18A2, anti-his tag detection
Method: as §3
(§4) CHO-S-CLD18A2 and Jurkat cells are plated in 96-well plates at 5×10⁵/ml per well, and blocked with 3% BSA for 1 hat room temperature. The purified Anti-CLDN18×CD3 fusion protein, the Anti-C18.2-6 and Anti-C18.2-19 VHH prepared in Embodiment 4, and the anti-CD3 VHH are diluted in gradients with 1% BSA, and then added into the pre-blocked cells respectively, and then incubated at room temperature for 1 h. The following experimental process is the same as in Embodiment 4.3. […]

[8] = biological target: T3, CD3 (human, UniProt P07766 23-207; P09693 23-182; P04234 22-171; P20963 22-164); assay: cell ELISA on CD3-positive Jurkat cells, anti-his tag detection
T3 construct: whole, on cells; also called CD3 positive cell Jurkat; cluster of differentiation 3
T3 sequence (P07766 23-207, chain 1 of 4): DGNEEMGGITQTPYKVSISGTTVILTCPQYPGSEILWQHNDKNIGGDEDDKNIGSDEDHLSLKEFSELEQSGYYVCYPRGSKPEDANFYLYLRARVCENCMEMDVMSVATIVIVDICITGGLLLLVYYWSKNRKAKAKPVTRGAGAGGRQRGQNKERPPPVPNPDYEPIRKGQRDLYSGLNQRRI
T3 sequence (P09693 23-182, chain 2 of 4): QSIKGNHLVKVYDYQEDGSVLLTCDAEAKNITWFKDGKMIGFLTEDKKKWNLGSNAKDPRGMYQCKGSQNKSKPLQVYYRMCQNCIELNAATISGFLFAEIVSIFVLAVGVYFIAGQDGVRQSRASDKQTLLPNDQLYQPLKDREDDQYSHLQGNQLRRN
T3 sequence (P04234 22-171, chain 3 of 4): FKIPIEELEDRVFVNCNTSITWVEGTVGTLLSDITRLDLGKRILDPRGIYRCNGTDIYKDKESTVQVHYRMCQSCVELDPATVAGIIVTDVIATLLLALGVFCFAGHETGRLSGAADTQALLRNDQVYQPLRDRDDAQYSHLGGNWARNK
T3 sequence (P20963 22-164, chain 4 of 4): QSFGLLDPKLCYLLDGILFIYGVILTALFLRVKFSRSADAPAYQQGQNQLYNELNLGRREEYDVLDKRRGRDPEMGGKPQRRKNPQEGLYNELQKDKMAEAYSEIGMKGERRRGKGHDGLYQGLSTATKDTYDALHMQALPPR
Method: as §3, §4

[9] = biological target: T1, CLD18A2; assay: cell-based or functional assay

Binder	OD450 nm [1] [OD450 nm]	OD450 nm [2] [OD450 nm]	OD450 nm [3] [OD450 nm]	binding result [4]	EC50 [5] [nM]	EC50 [6] [nM]	EC50 [7] [nM]	EC50 [8] [nM]	EC50 of killing of NUGC-4-CLD18A2 with T cells (LDH release, E:T 10:1) [9] [nM]
Anti-C18.2-20 (VHH, not shown: small tags and cut ends, Treated as one molecule; also called C18-20) VHH: QVQLVESGGGLVQPGGSLRLSCAASGSIFSINAMGWYRQAPGKQRELVAAITFGGGSTNYADSVKGRFTISRDNAKNTVYLQMNSLKPEDTAVYYCNADLLVGGFPRRNVYWGQGTQVTVSS	0.528	0.621	0.128	no binding (tested: 2 µg/ml)	1.87	–	–	–	–
ch-175D10 (antibody, V domains shown) VH: QVQLQQPGAELVRPGASVKLSCKASGYTFTSYWINWVKQRPGQGLEWIGNIYPSDSYTNYNQKFKDKATLTVDKSSSTAYMQLSSPTSEDSAVYYCTRSWRGNSFDYWGQGTTLTVSS VL: DIVMTQSPSSLTVTAGEKVTMSCKSSQSLLNSGNQKNYLTWYQQKPGQPPKLLIYWASTRESGVPDRFTGSGSGTDFTLTISSVQAEDLAVYYCQNDYSYPFTFGSGTKLEIKR	–	–	–	–	–	2.59	–	–	–
Anti-C18.2-7 (VHH, not shown: small tags and cut ends, Treated as one molecule; also called C18-7) VHH: QVQLVESGGGLVQPGGSLRLSCAASGSIFLINAMGWYRQAPGKQRELVAVITRGGSANYTDSVKGRFTISRDNAKNTVYLQMNSLKPEDTAVYYCNADLNLRSDPFKWYTFWGQGTQVTVSS	0.594	0.658	0.132	no binding (tested: 2 µg/ml)	2.12	–	–	–	–
Anti-C18.2-28 (VHH, not shown: small tags and cut ends, Treated as one molecule; also called C18-28) VHH: QVQLVESGGGLVQPGGSLRLSCAASGSIFMINVMGWYRQAPGKQRELVAVITRGASTNYADSVKGRFTISRDNAKNTVYLQMNSLKPEDTAVYYCNADLNLASDPFKWYTYWGQGTQVTVSS	0.47	0.598	0.121	no binding (tested: 2 µg/ml)	2.54	–	–	–	–
Anti-CLDN18×CD3-hu6V3 (bispecific antibody, Bispecific VHH; Expressed in Pichia pastoris; also called Anti-CLDN18×CD3 fusion protein) QVQLVESGGGLVQPGGSLRLSCAASGGIFSIGVMGWYRQAPGKGLELVATITSRGSTNYADSVKGRFTISRDNSKNTLYLQMNSLRAEDTAVYYCYADLIRPGDFYGMDYWGQGTLVTVSSGGGGSGGGGSGGGGSGGGGSGGGGSGGGGSGGGGSEVQLVESGGGPVQAGGSLRLSCAASGRTYRGYSMGWFRQAPGKEREFVAAIVWSGGNTYYEDSVKGRFTISRDNAKNTMYLQMTSLKPEDSATYYCAAKIRPYIFKIAGQYDYWGQGTQVTVSS	–	–	–	–	–	–	6.5	9.39	0.0261
Anti-C18.2-32 (VHH, not shown: small tags and cut ends, Treated as one molecule; also called C18-32) VHH: QLQLVESGGGLVQPGGSLRLSCAASGEISSDAMAWYRQAPGKQRELVAGMTRGGSTNYADSVKGRFTISRDFAKNTVDLQMNSLKPEDTAVYYCNAEIYTGTFYPRSYWGQGTQVTVSS	0.526	0.586	0.107	no binding (tested: 2 µg/ml)	2.21	–	–	–	–
Anti-C18.2-15 (VHH, not shown: small tags and cut ends, Treated as one molecule; also called C18-15) VHH: QVQLVESGGGLVQPGGSLRLSCTASGSIFRIDGMHWYRQAPGKQRELVASITPSGITHYADSVKGRFTISRDIAKKMQYLQMNSLKPEDTAVYYCNAHLVKVGGVWSDEYWGQGTQVTVSS	0.685	0.671	0.189	no binding (tested: 2 µg/ml)	2.89	–	–	–	–
Anti-CLDN18×CD3-hu19V3 (bispecific antibody, Bispecific VHH; Expressed in Pichia pastoris; also called Anti-CLDN18×CD3 fusion protein) QVQLVESGGGLVQPGGSLRLSCAASGVDISSDVMAWYRQAPGKGLEFVSGLTRGGSINYADSVKGRFTISRDNSKNTLYLQMNSLRAEDTAVYYCNAEIYTGTFYPRSYWGQGTLVTVSSGGGGSGGGGSGGGGSGGGGSGGGGSGGGGSGGGGSEVQLVESGGGPVQAGGSLRLSCAASGRTYRGYSMGWFRQAPGKEREFVAAIVWSGGNTYYEDSVKGRFTISRDNAKNTMYLQMTSLKPEDSATYYCAAKIRPYIFKIAGQYDYWGQGTQVTVSS	–	–	–	–	–	–	4.6	10.4	0.0207
Anti-C18.2-6 (VHH, not shown: small tags and cut ends, Treated as one molecule; also called C18-6) VHH: QLQLVESGGGLVQPGGSLRLSCAASGGIFSIGVMGWYRQAPGKQRELVATITSRGSTNYADSVKGRFTISGDNAKNTVYLQMNNLKPEDTAVYYCYADLIRPGDFYGMDYWGKGTLVTVSS	0.623	0.719	0.142	no binding (tested: 2 µg/ml)	1.53	–	–	–	–
Anti-C18.2-19 (VHH, not shown: small tags and cut ends, Treated as one molecule; also called C18-19) VHH: QLQLVESGGGLVQPGGSLRLSCAASGVDISSDVMAWYRQAPGKQREFVSGLTRGGSINYADSVKGRFTISRDFAKNTVDLQMNSLKPEDTAVYYCNAEIYTGTFYPRSYWGQGTQVTVSS	0.565	0.668	0.121	no binding (tested: 2 µg/ml)	1.25	–	–	–	–
Anti-C18.2-69 (VHH, not shown: small tags and cut ends, Treated as one molecule; also called C18-69) VHH: QVQLVESGGGLVQPGGSLRLSCAASGSIFSIPVMTWYRQALGKEREFVAGISKGGTSNYADSVKGRFTVSRDNAKNTVYLQMNSLKSEDTAVYYCNAQASSFGWMPLSDYWGQGTQVTVSS	0.608	0.573	0.253	no binding (tested: 2 µg/ml)	2.23	–	–	–	–
